Results reported in the MegaScale stability set (Tsuboyama et al. 2023).

B1: r16_88_TrROS_Hall (parent)
chain: EVIELKIKFKTPEQREKLKEIAKKLNAEVVEEKDGEVIIRFKTPEQAERALKEAEKLGAEVEL

Variants of: B1
Experiment: folding stability dG (cDNA display proteolysis); higher = more stable
Conditions: PBS, room temperature

Folding stability dG [kcal/mol], by site and new letter:
K8: Y 4.61; C 4.15; Q 4.14; D 3.72; E 3.87; N 4.08; F 4.53; G 4.05; S 4.1; P 4.21; A 4.09; V 4.34; W 4.83; T 4.33; R 4.62; I 4.12; H 4.25; L 4.31; M 4.48
E20: L 4.87; A 4.37; H 4.5; D 4.26; Q 4.22; T 4.5; R 4.59; P 3.68; V 4.47; G 4.32; I 4.45; S 4.41; F 4.98; Y 4.95; C 4.51; W 4.75; M 4.79; N 4.25; K 4.39
Q14: I 4.1; L 4.33; H 4.2; F 4.25; K 4.09; W 4.3; M 4.43; R 4.42; C 4.28; S 4.19; G 4.33; A 4.33; Y 4.18; E 3.98; P 3.48; T 4.3; N 4.47; D 4.16; V 4.38
E16: F 4.73; T 4.36; A 4.32; S 4.44; M 4.6; V 4.47; H 4.59; N 4.5; I 4.38; D 4.24; R 4.54; L 4.6; G 4.52; Q 4.43; K 4.47; C 4.51; P 4.03
F9: V 4.27; C 4.19; G 3.9; S 3.85; H 4.19; T 3.73; R 2.76; Q 3.28; W 4.61; E 2.48; K 2.75; Y 4.33; P 4.02; I 3.96; N 3.54; A 4.06; M 3.98; L 4; D 3.45
I21: P 1.81; T 4.33; L 4.39; G 3.77; M 4.43; E 4; Q 4.06; H 4.29; F 4.76; A 4.15; N 4.13; D 3.4; K 3.78; R 3.62; C 4.31; S 4.17; V 4.33; Y 4.78
K6: H 4.48; M 4.43; V 4.37; C 4.34; Q 4.17; T 4.34; E 3.75; L 4.32; N 4.39; D 3.67; A 4.22; S 4.26; F 4.76; G 4.02; P 3.96; W 4.94; I 4.47; R 4.73; Y 4.77
L5: R 4.4; V 4.29; S 3.94; T 4.04
K10: M 4.19; P 4.2; Y 4.5; V 4.2; R 4.47; H 4.28; G 4.21; W 4.3; T 4.38; N 4.22; Q 4.34; C 4.2; D 4.11; A 4.22; F 4.18; I 4.09; E 4; S 4.16; L 4.29
I7: T 4.09; F 4.53; C 4.31; R 3.04; Q 3.21; E 2.11; A 4.69; K 2.77; L 4.64; G 4.36; M 4.39; D 1.65; H 3.18; W 4.97; N 2.98; Y 4.82; S 3.87; V 4.44; P 2.3
E13: I 4.32; P 4.54; T 4.32; Q 4.57; A 4.33; F 4.99; N 4.57; V 4.37; M 4.65; S 4.66; C 4.88; R 4.58; W 4.85; K 4.51; Y 4.76; D 4.3; H 4.41; G 4.51; L 4.88
A22: T 4.36; W 4.68; H 4.21; Y 4.74; I 4.38; V 4.38; G 4.64; L 4.62; R 4.18; P 3.7; F 4.65; M 4.35; N 4.12; E 4.17; K 3.78; S 4.19; C 4.17; D 2.91; Q 4.39
K17: Q 4.42; C 4.36; D 4.49; W 4.61; Y 4.56; R 4.51; L 4.53; P 4.28; E 4.3; S 4.45; N 4.42; G 4.38; F 4.57; V 4.28; M 4.42; T 4.2; H 4.4; I 4.18; A 4.54
K19: R 4.3; I 4.31; T 4.49; D 4.31; N 4.11; Q 4.3; E 4.12; A 4.18; C 4.22; V 4.14; G 4.38; F 4.62; M 4.42; S 4.25; Y 4.89; P 3.37; H 4.29; L 4.5; W 4.7
T11: I 4.59; P 3.48; R 4.37; Q 4.33; L 4.75; E 4.14; G 4.26; M 4.62; K 4.23; F 4.54; V 4.48; W 4.6; S 4.44; C 4.58; A 4.39; D 4.03; N 4.26; H 4.42; Y 4.02
R15: T 4.16; K 4.13; W 4.66; A 4.13; Q 4.22; G 3.95; I 4.37; F 4.35; P 3.44; L 4.18; S 4.17; C 4.31; E 4.31; N 4.17; D 4.11; M 4.31; H 4.27; V 4.29; Y 4.58
L18: N 2.97; T 4.15; K 1.68; W 4.54; S 4.19; D 1.24; P 1.65; Y 4.53; E 1.57; H 3.49; G 3.83; M 4.28; Q 2.9; I 4.33; V 4.26; A 4.39; R 2.12; F 4.29; C 4.11
P12: I 4.47; Q 4.3; F 4.85; L 4.31; M 4.53; K 4.4; C 4.54; G 4.38; R 4.73; S 4.44; A 4.39; H 4.59; T 4.57; E 4.46; N 4.23; D 4.2; W 4.88; Y 4.91; V 4.49
K23: H 4.28; A 4.21; E 4.36; N 4.34; L 4.53; G 4.43; I 4.56; M 4.54; D 4.09; C 4.61
